Patent US20120082682A1 (GlaxoSmithKline, published 2012)

Experiments:
[1] = target: T1, human IL-13 (recombinant E. coli-expressed) (human, UniProt P35225 35-146); experiment: cell-based or functional assay
[2] = target: T1, human IL-13 (recombinant E. …); experiment: cell-based or functional assay; remark: listed apart in the source
[3] = target: T1, human IL-13 (recombinant E. …); experiment: Biacore T100 SPR, mAb captured on anti-human IgG, IL13 analyte
Procedure: (§1) Table 1 details the overall affinities (equilibrium dissociation constant KD) for the selected constructs from the ProteOn screen and the T100 run
In light of this, mutations at this residue that were not present in the initial screen were tested using the ProteOn using the same method as described earlier and again using antibodies direct from tissue culture supernatants.

[4] = target: T1, human IL-13 (recombinant E. …); experiment: ProteOn XPR36 SPR, mAb captured on anti-human IgG, IL13 analyte
Procedure: (§2) The initial screen of CDRH3 mutants was carried out on the ProteOn XPR36 (Biorad). […] 3M MgCl₂ was used to regenerate the capture surface, removing the bound CDRH3 mutant antibodies ready for another cycle of capture and analyte injection. The data was fitted to the 1:1 model using the software inherent to the machine.

[5] = target: T1, human IL-13 (recombinant E. …); experiment: Biacore T100 SPR, mAb captured on anti-human IgG, IL13 analyte, 1:1 fit
Description: as §1

[6] = target: T1, human IL-13 (recombinant E. …); experiment: ProteOn XPR36 SPR, purified mAb captured on anti-human IgG, IL13 analyte, 1:1 fit; range over several runs
Procedure: as §2

[7] = target: T1, human IL-13 (recombinant E. …); experiment: Biacore T100 SPR, purified mAb captured on anti-human IgG, IL13 analyte, 1:1 fit
Description: as §1

[8] = target: T1, human IL-13 (recombinant E. …); experiment: as above; remark: listed apart in the source
Description: as §1

T1 sequence (P35225 other isoform, or with tags, fused parts or gaps limits assumed): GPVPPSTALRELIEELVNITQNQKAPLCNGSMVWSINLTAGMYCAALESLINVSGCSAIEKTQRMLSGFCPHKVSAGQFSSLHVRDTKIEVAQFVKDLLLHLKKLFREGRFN

B1: A1L1 (antibody, human IgG1, kappa, V domains shown)
VH: QVQLVQSGAEVKKPGSSVKVSCKASGFYIKDTYMHWVRQAPGQGLEWMGTIDPANGNTKYVPKFQGRVTITADESTSTAYMELSSLRSEDTAVYYCARSIYDDYHYDDYYAMDYWGQGTLVTVSS
VL: DIVMTQSPLSLPVTPGEPASISCRSSQNIVHINGNTYLEWYLQKPGQSPRLLIYKISDRFSGVPDRFSGSGSGTDFTLKISRVEADDVGIYYCFQGSHVPWTFGQGTKLEIKR
notes: Humanised version of murine 6A1, human IgG1 kappa; also called parental; 586 (mAb)
- ND50 (nM), TF-1 cell proliferation bioassay [1]: 9.77 nM
- Mean ND50 value (nM), TF-1 cell proliferation bioassay [2]: 5.01 nM
- Kd [3]: 0.346 nM
- Kd [4]: 0.39 to 0.46 nM
- Kd [5]: 0.36 nM
- koff [5]: 0.000456 s⁻¹
- kon [5]: 1.27e+06 M⁻¹ s⁻¹
- Kd [6]: 0.45 to 0.6 nM
- Kd [7]: 0.366 nM
- Kd [8]: 0.326 nM
- koff [8]: 0.000368 s⁻¹
- kon [8]: 1.13e+06 M⁻¹ s⁻¹
